From article PMC5913134, “The IL-33-PIN1-IRAK-M axis is critical for type 2 immunity in IL-33-induced allergic airway inflammation” (Nature Communications, 2018)

Key:
PIN1 = PIN1 enzymatic (PPIase) activity in DC2.4 cells; format: cell-based, C57BL/6; details: IL-33 100 ng/ml, 5 min, substrate Suc-Ala-Glu-Pro-Phe-pNa
Procedure: DC2.4 cell line were either treated with 100ng/ml IL-33 for indicate time (0, 5 and 15 min). The cells were harvested and homogenized in a reaction buffer containing 100 mM NaCl, 50 mM HEPES, pH 7, 2 mM DTT, and 0.04 mg/ml BSA. The lysates were cleared by centrifugation at 12,000 g for 10 minutes (4 °C). PPIase activity was measured using equal amounts of […] cytoplasmic lysates and α-chymotrypsin using a synthetic tetrapeptide substrate Suc-Ala-Glu-Pro-Phe-pNa (Peptides International). Absorption at 390 nm was measured using an Ultrospec 2000 spectrophotometer. The results are expressed as the mean of 3 measurements from a single experiment and are representative of 3 independent experiments.

IRAK-M [1] = assay: IRAK-M phosphorylation in DC2.4 cells; format: cell-based, C57BL/6; details: DC2.4; IL-33 100 ng/ml, 1 h, γ-32P labeling
Procedure: Fig. 2 IL-33 induces IRAK-M phosphorylation and binding to PIN1. a GST PIN1 pulldown assay with DC2.4 cell extracts either non-treated or treated with IL-33 (100 ng/ml) or LPS (100ng/ml) for 1 h. […] The cells were washed with fresh medium and treated with 100 ng/ml IL-33 for the indicated times prior to IRAK-M immunoprecipitation. d DC2.4 cells stably expressing IRAK-M were treated with IL-33 and at the indicated time points were subjected to CO-IP using anti-PIN1 antibody and blotted for IRAK-M. e HEK293 cells were transfected with different IRAK-M constructs expressing the N’ terminal domain (aa1-220), the middle portion of the protein (aa220-440) or the C’ terminal domain (aa 440-630), and then treated with IL-33, followed by CO-IP for PIN1. f DC2.4 cells stably expressing IRAK-M were treated with IL-33 and subjected to GST or GST-PIN1 pull-down.

CD3+ CD4+ T cells = assay: Lung CD3+ CD4+ T cells after IL-33 challenge; format: in vivo, mouse; details: IL-33 intranasal, sorted lung T cells, n=3
Procedure: Lungs were digested using Kollagenase D and dispase and the dendritic cells populations (CD11c^+ CD205^+ CD11b^+) were determined by staining the cells using the following antibodies: PE anti mouse CD11c (catalog number 117307), APC anti mouse CD205 (catalog number 138205), FITC anti mouse CD11b (catalog number 101205). For co stimulatory protein expression, FITC anti mouse CD40 (catalog number 124607), FITC anti mouse CD80 (catalog number 104705), FITC anti mouse CD86 (catalog number 105005) were used. […] Cells were analyzed using LSRII flow cytometer and FlowJo software. […]
Supplementary Figure 6. […] ( b) The indicated lungs were digested and the CD3+ CD4+ cells were monitored and cell sorted using APC-CD3 and FITC-CD4 antibodies respectively, for further analysis. […] (c) Sorted CD3+ CD4+ cells from the indicated mice after PBS and IL-33 challenge were analyzed for IL-13 and IL-5 expression (n=3).
(d) Quantification of figure 6E; Dendritic cell CD11b+ expression in WT, Pin1KO and IRAK-M KO mice lungs, either treated with IL-33 or PBS as before. (e) WT and IRAK-M KO mice were either treated with IL-33 or PBS, the lungs were digested and the CD11c+ cells were analyzed for the expression of costimulatory proteins CD40, CD80 and CD86. […]

IRAK-M [2] = assay: IRAK-M protein levels in BMDCs; format: cell-based, mouse; details: BMDC from WT and PIN1 KO mice, IL-33, time-dependent

B1: IL-33: Recombinant mouse IL-33 purchased from BioLegend (protein, UniProt Q8BVZ5 1-266, looked up)
Interleukin-33: MRPRMKYSNSKISPAKFSSTAGEALVPPCKIRRSQQKTKEFCHVYCMRLRSGLTIRKETSYFRKEPTKRYSLKSGTKHEENFSAYPRDSRKRSLLGSIQAFAASVDTLSIQGTSLLTQSPASLSTYNDQSVSFVLENGCYVINVDDSGKDQEQDQVLLRYYESPCPASQSGDGVDGKKLMVNMSPIKDTDIWLHANDKDYSVELQRGDVSPPEQAFFVLHKKSSDFVSFECKNLPGTYIGVKDNQLALVEEKDESCNNIMFKLSKI
Q: Which results are given for B1?
A: PIN1 activity (PIN1): dramatically elevated PIN1 activity; IRAK-M phosphorylation (IRAK-M [1]): IRAK-M was phosphorylated; Il13 and -5 expression in CD3+ CD4+ T cells (CD3+ CD4+ T cells): markedly induced expression; IRAK-M protein levels (IRAK-M [2]): increased IRAK-M protein levels in WT, but not PIN1 KO cells
